Measurements: paper PMC4386031

Target: seven of the nine datasets (monoUb and the diUb types fitted to a one-site binding model)
Assay: SPR; monoUb and all types of diUb immobilized, NZF1 (or its mutants) binding detected; one-site or two-site binding model; two experiments

TRABID NZF1 (aa 1-33) (from UniProt Q9UGI0 1-33) (domain or fragment)
Kd: 190 to 370 µM
